Measurements published in patent US20250059559A1 (FLAGSHIP PIONEERING INNOVATIONS V, published 2025).

B1: Ring 2 ORF1 fused to an N-terminal HIS6-tag (HIS-ORF1) (other)
chain: MPYYYRRRRYNYRRPRWYGRGWIRRPFRRRFRRKRRVRPTYTTIPLKQWQPPYKRTCYIKGQDCLIYYSNLRLGMNSTMYEKSIVPVHWPGGGSFSVSMLTLDALYDIHKLCRNWWTSTNQDLPLVRYKGCKITFYQSTFTDYIVRIHTELPANSNKLTYPNTHPLMMMMSKYKHIIPSRQTRRKKKPYTKIFVKPPPQFENKWYFATDLYKIPLLQIHCTACNLQNPFVKPDKLSNNVTLWSLNTISIQNRNMSVDQGQSWPFKILGTQSFYFYFYTGANLPGDTTQIPVADLLPLTNPRINRPGQSLNEAKITDHITFTEYKNKFTNYWGNPFNKHIQEHLDMILYSLKSPEAIKNEWTTENMKWNQLNNAGTMALTPFNEPIFTQIQYNPDRDTGEDTQLYLLSNATGTGWDPPGIPELILEGFPLWLIYWGFADFQKNLKKVTNIDTNYMLVAKTKFTQKPGTFYLVILNDTFVEGNSPYEKQPLPEDNIKWYPQVQYQLEAQNKLLQTGPFTPNIQGQLSDNISMFYKFYFKWGGSPPKAINVENPAHQIQYPIPRNEHETTSLQSPGEAPESILYSFDYRHGNYTTTALSRISQDWALKDTVSKITEPDRQQLLKQALECLQISEETQEKKEKEVQQLISNLRQQQQLYRERIISLLKDQ
notes: also called Ring 2 HIS-ORF1; not shown: N-terminal HIS6-tag
B2: untagged Ring2 ORF1 (other)
chain: B1 chain
notes: also called LY2 ORF1
B3: Ring 10 ORF1 fused to an N-terminal HIS6-tag (HIS-ORF1) (other)
chain: MPWWYRRRSYNPWRRRNWFRRPRKTIYRRYRRRRRWVRRKPFYKRKIKRLNIVEWQPKSIRKCRIKGMLCLFQTTEDRLSYNFDMYEESIIPEKLPGGGGFSIKNISLYALYQEHIHAHNIFTHTNTDRPLARYTGCSLKFYQSKDIDYVVTYSTSLPLRSSMGMYNSMQPSIHLMQQNKLIVPSKQTQKRRKPYIKKHISPPTQMKSQWYFQHNIANIPLLMIRTTALTLDNYYIGSRQLSTNVTIHTLNTTYIQNRDWGDRNKTYYCQTLGTQRYFLYGTHSTAQNINDIKLQELIPLTNTQDYVQGFDWTEKDKHNITTYKEFLTKGAGNPFHAEWITAQNPVIHTANSPTQIEQIYTASTTTFQNKKLTDLPTPGYIFITPTVSLRYNPYKDLAERNKCYFVRSKINAHGWDPEQHQELINSDLPQWLLLFGYPDYIKRTQNFALVDTNYILVDHCPYTNPEKTPFIPLSTSFIEGRSPYSPSDTHEPDEEDQNRWYPCYQYQQESINSICLSGPGTPKIPKGITAEAKVKYSFNFKWGGDLPPMSTITNPTDQPTYVVPNNFNETTSLQNPTTRPEHFLYSFDERRGQLTEKATKRLLKDWETKETSLLSTEYRFAEPTQTQAPQEDPSSEEEEESNLFERLLRQRTKQLQLKRRIIQTLKDLQKLE
notes: also called Ring 10 HIS-ORF1; not shown: N-terminal HIS6-tag
B4: full-length Ring 10 ORF1 (residues 1-672) (other)
chain: B3 chain
notes: also called Ly1 ORF1; full-length ORF1
B5: Ring2 ORF1 with a deletion of the C-terminus amino acids 611-666 (pRTx-2652), Ring2 AnelloVLP (other)
chain: MPYYYRRRRYNYRRPRWYGRGWIRRPFRRRFRRKRRVRPTYTTIPLKQWQPPYKRTCYIKGQDCLIYYSNLRLGMNSTMYEKSIVPVHWPGGGSFSVSMLTLDALYDIHKLCRNWWTSTNQDLPLVRYKGCKITFYQSTFTDYIVRIHTELPANSNKLTYPNTHPLMMMMSKYKHIIPSRQTRRKKKPYTKIFVKPPPQFENKWYFATDLYKIPLLQIHCTACNLQNPFVKPDKLSNNVTLWSLNTISIQNRNMSVDQGQSWPFKILGTQSFYFYFYTGANLPGDTTQIPVADLLPLTNPRINRPGQSLNEAKITDHITFTEYKNKFTNYWGNPFNKHIQEHLDMILYSLKSPEAIKNEWTTENMKWNQLNNAGTMALTPFNEPIFTQIQYNPDRDTGEDTQLYLLSNATGTGWDPPGIPELILEGFPLWLIYWGFADFQKNLKKVTNIDTNYMLVAKTKFTQKPGTFYLVILNDTFVEGNSPYEKQPLPEDNIKWYPQVQYQLEAQNKLLQTGPFTPNIQGQLSDNISMFYKFYFKWGGSPPKAINVENPAHQIQYPIPRNEHETTSLQSPGEAPESILYSFDYRHGNYTTTALSRISQDWALKDTVSK
notes: also called Ring2 delCterm (Δ611-666) (7047); Ring2 AnelloVLP 2652
B6: Ring 10 ORF1 delARM delCTD (residues 2-45 and 552-672 deleted) (other)
chain: MKIKRLNIVEWQPKSIRKCRIKGMLCLFQTTEDRLSYNFDMYEESIIPEKLPGGGGFSIKNISLYALYQEHIHAHNIFTHTNTDRPLARYTGCSLKFYQSKDIDYVVTYSTSLPLRSSMGMYNSMQPSIHLMQQNKLIVPSKQTQKRRKPYIKKHISPPTQMKSQWYFQHNIANIPLLMIRTTALTLDNYYIGSRQLSTNVTIHTLNTTYIQNRDWGDRNKTYYCQTLGTQRYFLYGTHSTAQNINDIKLQELIPLTNTQDYVQGFDWTEKDKHNITTYKEFLTKGAGNPFHAEWITAQNPVIHTANSPTQIEQIYTASTTTFQNKKLTDLPTPGYIFITPTVSLRYNPYKDLAERNKCYFVRSKINAHGWDPEQHQELINSDLPQWLLLFGYPDYIKRTQNFALVDTNYILVDHCPYTNPEKTPFIPLSTSFIEGRSPYSPSDTHEPDEEDQNRWYPCYQYQQESINSICLSGPGTPKIPKGITAEAKVKYSFNFKWGGDLPPMST
notes: also called Ring 10 delARM delCTD

Columns and labels:
[1] = target: the molecule itself; assay: self-assembly; negative-stain EM
[2] = target: the molecule itself; assay: self-assembly; heparin and SEC purification, EM
[3] = target: the molecule itself; assay: self-assembly; EM

Row | Protein | binding result [1] | other results
1 | B1 | binds | 
2 | B2 |  | binding result [2]: binds
3 | B3 | binds | 
4 | B4 | binds | 
5 | B5 |  | binding result [3]: binds
6 | B6 | binds | 
